As usually defined, the EC50 is the concentration at which the effect is half-maximal.

Six molecules from patent US20220363752A1 (VERSEAU THERAPEUTICS, published 2022) can be followed below.

The target of assay [1] is T1, LRRC25(96-115) biotin peptide (human, not fully specified; N-terminal acetyl; C-terminal GGK-Biotin; native Cys changed to Ser).
T1 construct: also called Biotin LRRC25 (96-115) peptide
T1 peptide: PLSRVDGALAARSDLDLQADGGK
Put plainly: ELISA, 20 nM antibody, biotinylated antigen on streptavidin plate. The method, boiled down: (§1)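 Plate-bound streptavidin captured biotinylated 16- to 20-mer LRRC25 ECD overlapping peptides (2 ug/mL), with biotinylated human LRRC25-His as positive control. Chimeric anti-LRRC25 antibodies at 20 nM, 45 min at 37° C in duplicate; detection by HRP anti-human IgG and TMB at A450 nm.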

Assay [2] deals with T2, biotinylated human LRRC25-His protein (human, UniProt Q8N386 21-165, biotinylated (sites not given)).
T2 construct: also called Biotin LRRC25-His; biotinylated LRRC25 protein
T2 sequence (Q8N386 other isoform, or with tags, fused parts or gaps): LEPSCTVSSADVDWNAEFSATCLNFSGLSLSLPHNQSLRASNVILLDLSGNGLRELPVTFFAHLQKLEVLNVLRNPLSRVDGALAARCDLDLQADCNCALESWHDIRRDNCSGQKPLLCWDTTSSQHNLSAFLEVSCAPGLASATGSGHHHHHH
Described as above. A digest of the protocol:
as §1

For assay [3], the target named is T1, LRRC25(96-115) biotin peptide. As to the kind of experiment: peptide ELISA. A digest of the protocol:
as §1
On the technique in general: An ELISA detects its analyte on a solid surface through an enzyme-linked reagent.

Assay [4] deals with T3, LRRC25(36-55) biotin peptide (human, not fully specified; N-terminal NH2; C-terminal GGK-Biotin; native Cys changed to Ser).
T3 peptide: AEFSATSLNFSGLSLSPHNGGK
Put plainly: peptide ELISA. A digest of the protocol: as §1

The target of assay [5] is T4, LRRC25(81-100) biotin peptide (human, not fully specified; N-terminal acetyl; C-terminal GGK-Biotin).
T4 peptide: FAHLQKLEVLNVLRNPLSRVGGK
Put plainly: peptide ELISA. A digest of the protocol: as §1

The target in assay [6] is T5, LRRC25(66-85) biotin peptide (human, not fully specified; N-terminal acetyl; C-terminal GGK-Biotin).
T5 peptide: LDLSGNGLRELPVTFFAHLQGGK
As to the kind of experiment: peptide ELISA. A digest of the protocol: as §1

In assay [7] the target is T6, LRRC25(111-130) biotin peptide (human, not fully specified; N-terminal acetyl; C-terminal GGK-Biotin; native Cys changed to Ser).
T6 peptide: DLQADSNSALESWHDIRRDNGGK
As to the kind of experiment: peptide ELISA. The method, boiled down: as §1

The target in assay [8] is T7, LRRC25(51-69) biotin peptide (human, not fully specified; N-terminal acetyl; C-terminal GGK-Biotin).
T7 peptide: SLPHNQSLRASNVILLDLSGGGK
As to the kind of experiment: peptide ELISA. The method, boiled down:
as §1

Assay [9] has as its target T8, LRRC25(21-40) biotin peptide (human, not fully specified; N-terminal NH2; C-terminal GGK-Biotin; native Cys changed to Ser).
T8 peptide: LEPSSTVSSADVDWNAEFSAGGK
Put plainly: peptide ELISA. A digest of the protocol: as §1

Assay [10] has as its target T9, LRRC25(150-165) biotin peptide (human).
T9 peptide: Ac-SAFLEVSSAPGLASATGG-{Biotin′}
Put plainly: peptide ELISA. The method, boiled down:
as §1

In assay [11] the target is T10, LRRC25(126-145) biotin peptide (human, not fully specified; N-terminal acetyl; C-terminal GGK-Biotin; native Cys changed to Ser).
T10 peptide: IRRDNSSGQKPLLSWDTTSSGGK
Put plainly: peptide ELISA. A digest of the protocol: as §1

The target in assay [12] is T11, LRRC25(141-159) biotin peptide (human, not fully specified; N-terminal acetyl; C-terminal GGK-Biotin; native Cys changed to Ser).
T11 peptide: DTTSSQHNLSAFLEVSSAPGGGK
Put plainly: peptide ELISA. The method, boiled down: as §1

Assay [13] has as its target T12, His-tagged cynomolgus monkey LRRC25 extracellular domain protein, cyno LRRC25-His (cynomolgus monkey).
T12 construct: The entry holds the extracellular domain, a GSG linker and the His tag
Put plainly: ELISA, plate-immobilized antigen. A digest of the protocol: (§2)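 Wells coated overnight at 4 °C with 1 ug/mL antigen in PBS pH 7.4. Antibodies titrated from 500 nM in 3-fold steps in 1% skimmed milk/PBS, 1 h at room temperature, then HRP anti-human IgG; TMB read at A450 nm and EC50 taken from binding curves.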

The target in assay [14] is T13, His-tagged human LRRC25 extracellular domain protein, human LRRC25-His (human, UniProt Q8N386 21-165).
T13 construct: The entry holds the extracellular domain, a GSG linker and the His tag; also called LRRC25(ECD)-HIS
T13 sequence (Q8N386 other isoform, or with tags, fused parts or gaps): as the sequence (Q8N386 other isoform, or with tags, fused parts or gaps) above
Put plainly: ELISA, plate-immobilized antigen. A digest of the protocol: as §2

Positions count from the first letter of the chain named. Primed or numbered codes have the meaning given here. Biotin′ = not defined here

T12 sequence (chain, as listed by the source limits assumed): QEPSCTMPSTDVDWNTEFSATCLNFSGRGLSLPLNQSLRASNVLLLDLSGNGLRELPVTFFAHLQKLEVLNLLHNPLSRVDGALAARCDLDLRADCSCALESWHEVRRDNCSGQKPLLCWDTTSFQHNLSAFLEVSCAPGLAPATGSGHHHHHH

B1: anti-LRRC25 chimeric antibody 2C07 (antibody, human IgG4, V domains shown)
VH: QITLKESGPGILQPSQTLSLTCSFSGFSLTTSGMGVSWIRQPSGKGLEWLAHIYWDDDKRYNPSLRSRLTISKDTSSNQVVLKLTNVDTADTATYYCARRARDYYNSGHWYFDVWGAGTTVTVSS
VL: DVVMTQTPKSMSMSVGERVTLSCKASENVGTYVSWYQQKPDQSPKLLIFGASNRYTGVPDRFTGSGSATDFTLTISSVQAEDLADYHCGQTYSFPFTFGSGTKLEIKR
For the molecule B1, the “absorbance (A450)” value in [1] stood at 0.054 A450; in assay [2], 2.6 A450. For the same molecule, the binding result in assay [3], in assay [4], in [5], in [6], in assay [7] and in assay [8] was “no binding (tested: 20 nM)” in each case. Also, the binding result in assay [9], in assay [10], in assay [11] and in [12] was “no binding (tested: 20 nM)” in each case. The EC50 stood at 0.65 nM in assay [13] and 0.39 nM in assay [14].

B2: anti-LRRC25 chimeric antibody 2C08 (antibody, human IgG4, V domains shown)
VH: B1 VH with I2V, T30S, R66K, I71L, V81F, L84I, N86S, A101P, N106G, S107G
VL: B1 VL with V2I, T7S, S22T, P40A, D41E, F49Y, S77N, A80T, T91S, F94Y
With B2, the “absorbance (A450)” value in [1] turned out to be 0.049 A450; in assay [2], 2.39 A450. Also, the binding result in assay [3], in assay [4], in [5], in [6], in assay [7] and in assay [8] was “no binding (tested: 20 nM)” in each case. The binding result in [9], in [10], in assay [11] and in assay [12] was “no binding (tested: 20 nM)” each time. For the same molecule, the EC50 in [13] was determined as 1.4 nM; in assay [14], 2 nM.

B3: anti-LRRC25 chimeric antibody 2A07 (antibody, human IgG4, V domains shown)
VH: EVKLDESGGGLVQPGGSLKLSCATSGFTFSDYYMYWVRQTPEKRLEWVAYISNGGGSTYYPDTVKGRFTISRDNAKNTLYLQMSRLKSEDTAMYYCARSTAVSQMDYWGQGTSVTVSS
VL: DIVLTQSPAIMSASPGEKVTLTCSASSSVRSSYLNWYQQKPGSSPKLWIHGTSNLASGVPARFSGSGSGTSYSLTISSMEAEDAASYFCHQWSSYPPTFGAGTKLELKR
With B3, the results for the “absorbance (A450)” value in assay [1] and in assay [2] were 0.052 A450 and 2.44 A450, respectively. Besides, the binding result in assay [3], in assay [4], in [5], in assay [6], in assay [7] and in assay [8] was “no binding (tested: 20 nM)” each time. For the same molecule, the binding result in assay [9], in assay [10], in assay [11] and in assay [12] was “no binding (tested: 20 nM)” each time. For the same molecule, the 50% effective concentration (EC50) was determined as 4.6 nM in [13] and 0.63 nM in assay [14].

B4: anti-LRRC25 chimeric antibody 1B03 (antibody, human IgG4, V domains shown)
VH: EVQLVESGGGLVKPGGSLKLSCAASGFTFSSYAMSWVRQTPEKRLEWVASISRGGNTYYPDSMKGRFTISRDNARNILYLQMSSLRSEDTAMYYCARGQELRLFAYWGQGTLVTVSA
VL: QILLTQSPASLAVSLGQRATISCRASESVDSYGNSFMHWYQQKPGQPPKLLIYLASNLESGVPARFSGSGSRTDFTLTIDPVEADDAATYYCQQNNEDPWTFGGGTKLEIKR
Turning to B4, the entries for the “absorbance (A450)” value in assay [1] and in [2] were 1.64 A450 and 1.88 A450, respectively. The binding result in assay [4], in assay [5], in assay [6], in assay [7], in assay [8] and in assay [9] was “no binding (tested: 20 nM)” each time. Further, the binding result in assay [10], in assay [11] and in assay [12] was “no binding (tested: 20 nM)” in each case. In addition, the EC50 turned out to be 42.5 nM in assay [13] and 1.3 nM in assay [14].

B5: anti-LRRC25 chimeric antibody 3C07 (antibody, human IgG4, V domains shown)
VH: EVKLDESGGGLVKPGGSLKLSCAASGFTFSRYAMSWVRQTPEKRLEWVASISRGGSTYYPDSVKGRFTISRDIARDILYLQMSSLRSEDTAMYYCARGNYGSSLFAYWGQGTLVTVSA
VL: DIVMTQAAFSNPVTLGTSASISCRSSKSLLHSNGITYLYWYLQKPGQSPQLLIYQMSNLASGVPDRFSSSGSGTDFTLRISRVEAEDVGVYYCAQNLELPWTFGGGTKLEIKR
As for B5, the “absorbance (A450)” value in assay [1] came to 0.134 A450; in [2] it was 0.714 A450. Further, the binding result in assay [3], in [4], in [5], in [6], in assay [7] and in assay [8] was “no binding (tested: 20 nM)” throughout. Moreover, the binding result in assay [9], in [10], in assay [11] and in assay [12] was “no binding (tested: 20 nM)” in each case. In addition, the half-maximal effective concentration (EC50) in assay [13] was about 200 nM; in assay [14], 16.1 nM.

B6: anti-LRRC25 chimeric antibody 1C10 (antibody, human IgG4, V domains shown)
VH: B5 VH with V2E, R31S, S56N, I73N, D76N, Y93F, N99D
VL: B5 VL with W101F, G105S
As to B6, the results for the “absorbance (A450)” value in assay [1] and in assay [2] were 0.334 A450 and 0.421 A450, respectively. For the same molecule, the binding result in assay [4], in assay [5], in [6], in assay [7], in [8] and in [9] was “no binding (tested: 20 nM)” throughout. For the same molecule, the binding result in assay [10], in assay [11] and in assay [12] was “no binding (tested: 20 nM)” each time. Moreover, the concentration for a half-maximal effect (EC50) was about 1000 nM in assay [13] and 73.4 nM in [14].
